In data set [1] the target is SUD_(core), the core of the SARS-unique domain (Nsp3 residues 389-652) of SARS coronavirus (SARS coronavirus (strain TOR2)). Kind of data set: crystal structure.
For data set [2], the target named is SUDcore (SUDc5b) (SARS coronavirus strain TOR2, UniProt P0C6U8 1207-1470). Kind of data set: ZIGE (gel shift); 100 mM KCl. Particulars: protein: recombinant; tags: N-terminal His-tag, factor Xa site linker; chain copies: 2; G4. Background: In EMSA bound probe runs differently from free probe, usually more slowly.
Data set [3] concerns the target full-length SUD (Nsp3c) (SARS coronavirus strain TOR2, UniProt P0C6U8 1207-1544). The experiment in a line: ZIGE (gel shift); 100 mM KCl. The settings on record: protein: recombinant; tags: N-terminal His-tag, factor Xa site linker; G4.
In data set [4] the target is SUD-M (SARS coronavirus strain TOR2, UniProt P0C6U8 1343-1470). Kind of data set: ZIGE (gel shift). Particulars: protein: recombinant; tags: N-terminal His-tag, factor Xa site linker; G4 (oligo(G) known to form quadruplexes).
Data set [5] deals with SUD-N (SARS coronavirus strain TOR2, UniProt P0C6U8 1207-1342). The experiment in a line: ZIGE (gel shift). The settings on record: protein: recombinant; tags: N-terminal His-tag, factor Xa site linker; G4 (oligo(G) known to form quadruplexes).

In the case of “SUD_(core), the core of the SARS-unique domain (Nsp3 residues 389-652) of SARS coronavirus (domain or fragment)”, in data set [1], the stoichiometry N turned out to be 2.

Take UGGGGU (structured_RNA) [UG4U]: the binding result in data set [2] is reported as “binds”.

Turning to GGGCGCGGGAGGAATTGGGCGGG (structured_DNA) [Bcl-2 promoter G4], the binding result in data set [3] and in data set [2] was “binds” in each case.

UGGGGGGAGGGAGGGAGGGA (structured_RNA) [elastin 3'-NTR RNA G4]: the binding result in data set [3] and in data set [2] was “binds” throughout.

For GGGGGGGGGG (structured_DNA) [(dG)10], the binding result in data set [4] and in data set [5] was “binds” in each case.

The term stoichiometry N denotes the number of molecules, sites or subunits per partner or assembly.
